This data set in a line: soluble on expression in E. coli; label from the status in PepcDB or PDB records.
“MGAQGSRVDFKQVVLDVTSKPGKDDETFWDQAWWPDSVNEIFAMISGEDIRKLRDESPKNLATLVYKTVEKLQFSRNHPATIDQKKTINAIRLLTRIVPYLLEDAEWRGYFWSPIPHGDAAKPLAAVLLETLSDLLFCPEFTITHANGQKIDDLSTIDSCEYIWEAGVGSGNKPPMVALHYQNRTEILKLLLTCFAELIYAPVSDETRLRWVIHFTSVTNPHVLPIFTSLLNIVCAYDPVGYGLPYNYLLFNDSREPLVEIALQVLIVCLDKETQPNTDDSGYKDNYFINYLSRIHREEDFDFMLKGITRLLSNPIHSSSSYLPNSTKRVNFHQELLVLLWKCCEINQKFMFYVLKTSDVLDILVPILYHISDARNDSGRVGLIHMGVFIILLLSGERNFGVRLNKPYTAKANINVQTFTGTHADLLILVIHKLITTGNYRLQTLFDCFLTIMVNVSPYMKSLSMVAANKLVHLVEAFSTPWFLFSSPTNPQLVFSLLEVFNNVIQYQFDGNSNLIYTIIRKRNVFYQLSNLSTDAASIAKTLSGRKSKSANRDEMVDQLKSPTSTAPPEIPAADAPAAQTLGGVSTTTGLAATPALASMTGNVGNWEERPESSQDNEWIATQEWADAWKSKLPLQTIMRLLQVLVPQVEKICIDKGLTDESEILKFLQHGTLVGLLPVPHPIVIRRYQTNIGTNHWFRIYMWGVIYLKHTQPPIWYDTDVKLFEVQRA”: the “soluble on expression in E. coli” value is “not soluble”.
Under “MGAQVSTQKTGAHETGLRASGNSIIHYTNINYYKDAASNSANRQDFTQDPGKFTEPVKDIMVKSLPALN” stands “soluble”.
Regarding “MGCFFSKRRKADKESRPENEEERPKQYSWDQREKVDPKDYMFSGLKDETVGRLPGTVAGQQFLIQDCENCNIYIFDHSATVTIDDCTNCIIFLGPVKGSVFFRNCRDCKCTLACQQFRVRDCRKLEVFLCCATQPIIESSSNIKFGCFQWYYPELAFQFKDAGLSIFDNTWSNIHDFTPVSGELNWSLLPEDAVVQDYVPIPTTEELKAVRVSTEANRSIVPISRGQRQKSSDESCLVVLFAGDYTIANARKLIDEMVGKGFFLVQTKEVSMKAEDAQRVFREKAPDFLPLLNKGPVIALEFNGDGAVEVCQLIVNEIFNGTKMFVSESKETASGDVDSFYNFADIQMGILEHHHHHH”, the “soluble on expression in E. coli” value is listed as “soluble”.
For “MGCVSSKSTTVLSPQTSFNEASRTSFRALPGPSQRQLEVYDQCLIGAARWPDDSSKSNTPENRAYCQSMYNSIRSAGDEISRGGITSFEELWGRATEWRLSKLQRGEPLYSAFASERTSDTDAVTPLVKPYKSVLARVVDHEDAHDEIMQDNLFGDLNVKVYRQTAYLHGNVIPLNTFRVATDTEYLRDRVAHLRTELGAKALKQHLQRYNPDRIDHTNASYLPIIKDHLNDLYRQAISSDLSQAELISLIARTHWWAASAMPDQRGSAAKAEFAARAIASAHGIELPPFRNGNVSDIEAMLSGEEEFVEKYRSLLDSDCFGTGHHHHHH”, the “soluble on expression in E. coli” value is “soluble”.
For “MGDGAVKQGFLYLQQQQTFGKKWRRFGASLYGGSDCALARLELQEGPEKPRRCEAARKVIRLSDCLRVAEAGGEASSPRDTSAFFLETKERLYLLAAPAAERGDWVQAICLLAF”, the “soluble on expression in E. coli” value is listed as “soluble”.
Turning to “MGDGKPHTAQQTIPYLQMYPDGICRVTEKKYSKSLVFEDINYQLAQADDKTAIFENWCDFLNYFDASVSVQLSFINQGARQEKAQAAIEIPAQDDAFNSIRKEYADMLKNQLEKGNNGLEKCKYITFSIEADNLAAAKARLSRIETDVLNNFKVLGVTARPMNGQERLNVLHGIFHPAGEPFRFSWDWLVPSGLTTKDFIAPSSFHFGDGRTFRMGKKLGAVSFLEILAPELNDRMLSDILDLENGIIVNLHIRSIDQSEAIKTIKRKITDLDKMKIEEQKKAVRSGYDMDIIPSDLATFGSEAKNLLQDLQSRNERMFLLTFLVANMADTKRKLENDIFATAGFAQKNNCALTRLDYLQEAGFMSSIPLGENLIPIQRGLTTSSTAIFIPFITQELFQRGAALYYGLNALSNNMILCDRKQLKNPNGLILGTPGSGKSFAAKREITNIFLITDDDIIICDPEAEYYPLVERLHGQVVHISPTSRHYVNPMDINLNYSEDDNPLALKSDFILSLCELVIGGKEGLQPVEKTVIDRAVRNVYRPFLADPDPAKMPILGDLYNELLKQPEPEAARIAAALELYVSGSLNVFNHRTNVELSNRLVCFDIKQLGKQLKKLGMLIVQDQVWNRVTLNRAEKKATRYYMDEFHLLLKEEQTAAYSVEIWKRFRKWGGIPTAITQNVKDLLSSREVENIFENSDFVLMLNQAQGDRAILAKQLNISPQQMKYVTHTEAGEGLIFYGNVVLPFIDRFPTNTELYRLLTTKPEEVSKPLEHHHHHH”, the “soluble on expression in E. coli” value is given as “soluble”.
Take “MGDHYGFSLTTFSPSGKLMQIEYALNAVKNGQPSVGLRAKDGVVLATENVGSVLTDDQPKVEQISKHIGCVYSGMGPDFRILVKKARKIAMEYEMMYGEEMPTIQLVTDIAAVMQEYTQSGGVRPFGASLLIAGWDKNPGRPLLFQCDPSGAYFAWKATALGKNDVNAKTFLEKRFSEALELDDGIHTALLTLRESFDVGMNENNVEVAVCNSTGFHRLTKQQVHDHLGTL”: the “soluble on expression in E. coli” value is reported as “not soluble”.
For “MGDIDYQAIEFAYTKCADQQRDTPARHCVIVVGAGPVGLTTALDLARQGLRVVVLDDDYRLSTGSRAICFAKRTLEIWDRLGVGQRMVDKGVSWNVGKVFFRDQEVWRFDLLPEPGHRRPAFINLQQYYAEGYLHELASAQPGIELRWKSKVVGVAQQADGVQVTVDTPDGAYALHVDWLVACDGARSPVRKLLDLETHGRVFKDRFLIADVKMAADYPAERWFWFDPPFHPNQSVLLHMQPDNVWRIDFQLGWNADPVEAVKPENVLPRIRALLGPDADFELEWVSVYTFACERMDHFRHGRVVFAGDSAHRVSPFGARGANSGVQDAENLAWKLKLVLAGHAPESLIDSYAAEREYAADENILNSSRSTDFITPKSEVSRTFRNAVLNLARQHPFARTLVNSGRLSVPAAYADSPLNTPDSDPYAGTMRPGAVALDAPVRADAQPGWWLSQLDGGFALALFCGAETPRADMLDALRALQQDEVPVQPILVCDAGAAPAAAPAGVRVVEDSEGWLARRYDARPGTCYLIRPDQHIAARFRAFDAQAVRRALARAIGRALEHHHHHH”, the “soluble on expression in E. coli” value is on record as “not soluble”.
Regarding “MGDIMLIILTGLPGVGKSTFSKNLAKILSKNNIDVIVLGSDLIRESFPVWKEKYEEFIKKSTYRLIDSALKNYWVIVDDTNYYNSMRRDLINIAKKYNKNYAIIYLKASLDVLIRRNIERGEKIPNEVIKKMYEKFDEPGKKYKWDEPFLIIDTTKDIDFNEIAKKLIEKSKEIPKFYVLEENKNKNNNISDKIDKETRKIVSEYIKSKKLDKDKIKEVVELRKEFLKKIKKMEEVDADRVLKEFKDLLNSYLEHHHHHH”, the “soluble on expression in E. coli” value is recorded as “soluble”.
Under “MGDNGTGIECIGLPPGFSIDYYAEGVEGARSMALSPEGTLFAGSRGAGKLYAMTDRNGDNKADDVLVIAEGLDMPNGVAFRNGSLYVAEISRVLRYDDIEARLENPPDPAVVRGDFPADRSHGWKYIKFGPDGKLYVPVGMPCNVCNLEEEEERYGTMMRMEPDGSQPEIFARGIRNTVGFAWNPETGELWFTDNGRDWLGDDLPPDELNRAPVPGMHFGFPYCHGKDTPDPEYGEFRNCSEFTAPEVELGPHVAALGMTFYNGSMFPEEYRNQIFIAEHGSWNRKIPIGYRVSLVRLENGTPVSYEPFADGWLQGLASWGRPVDVLVMPDGALLVSDDKNNAIYRISLEHHHHHH” stands “not soluble”; under “MGDNLTDLPGVGPSTAEKLVEAGYIDFMKIATATVGELTDIEGISEKAAAKMIMGARDLCDLGFKSGIDLLKQRSTVWKLSTSSSELDSVLGGGLESQSVTEFAGVFGSGKTQIMHQSCVNLQNPEFLFYDEEAVSKGEVAQPKAVYIDTDGTFRPERIMQMAEHAGIDGQTVLDNTFVARAYNSDMQMLFAEKIEDLIQEGNNIKLVVIDSLTSTFRNEYTGRGKLAERQQKLGRHMATLNKLADLFNCVVLVTNQVSAKPDAFFGMAEQAIGGHIVGHAATFRFFVRKGKGDKRVAKLYDSPHLPDAEAIFRITEKGIQD”, “soluble”; under “MGEIESYCNKELGPLPTKAPTLSKNVLDLFSLKGKVASVTGSSGGIGWAVAEAYAQAGADVAIWYNSHPADEKAEHLQKTYGVHSKAYKCNISDPKSVEETISQQEKDFGTIDVFVANAGVTWTQGPEIDVDNYDSWNKIISVDLNGVYYCSHNIGKIFKKNGKGSLIITSSISGKIVNIPQLQAPYNTAKAACTHLAKSLAIEWAPFARVNTISPGYIDTDITDFASKDMKAKWWQLTPLGREGLTQELVGGYLYLASNASTFTTGSDVVIDGGYTCP”, “soluble”.
“MGEKIMKSMEIRSSEITTSGAGTLTGYVVRWDKLSELLWGEFYEKFQRGAFTEWLAAGNDVRGLYEHDHSMLLGRTRSGTLKLEEDETGLRFELTPPDTSTGRDVIELVKRGDISGMSFGFRSRKDVWDTTTDPCVRTVLVAELYEITVTSVPAYPDSGVELARRSLYEQHPEKMPRADNRRWWADLAGV”: the “soluble on expression in E. coli” value is on record as “not soluble”.
In the case of “MGENYKFFNHKDCEFFPCHKTNKPEEFNCLFCYCPLYALGENCGGNFKYTDKGIKDCSSCILPHKKDNYNYIMSKFQDLVKITSKKLEHHHHHH”, the “soluble on expression in E. coli” value is “not soluble”.
Under “MGEPVIEAQISAGFDSDSGFRHAFSRLAGQPPSNLRGRELLKVDWLQTPIGVMLAVADLEHHHHHH” stands “not soluble”; under “MGETAGREHGTVTRSAEYIGSFPVDDSCLDDQIQQLHTQLKSLKNCKSKRTVSLRFSVKGVKVYDEDETTLLMAHAMCRVSLSTARPSDAQFAFASHNPGNSDAQLYCHLFRARHARAAQFLNLLLCRCFQLYFLEKHPEEAQEECSGKKPSRAPSLLNQGFPLSVSALVSFRRAPTQGLLPGAKLFSQQSTEQVSSPEEGPTSSPTIVRKMAIRTKELRSGAYRSFTFTPLKQRHLQDKLSAPQGGMSVHRTLSRLKEFLRKGTSHCKGMHVSSSQFGRNRRSTGSSCVVLGWRV”, “not soluble”; under “MGETTAEAKKDPSSIRVVALDWRYEEILHALGITPVGIVEIGKSKEPQTLKGELEGVTSVGQAKQPNLEVIQSLEPDLILASPTRQAAIMDQLKEIAPTHAYGDTSYTEVLDAMDDIATKVGAEDKAKEVRTRIESKIAQAKNKVEPGTRTALIGWSKNTLYTWVKDSFAGSLLTAAGYEYGYDGEKSAIESKTDVAELTGDKLPEMKLDVMYLYNDIEGFRSSPYADVVSNIVDVEQDTWSRSRGPLAAEAMLDQIINSLEHHHHHH”, “not soluble”.
In the case of “MGFDSPRGRGGGGFRGGRGGGSGFTPRGGGGGFRGGDRGRSPGGFRGGDRGRSSSGFRGGDRGRSPGGFRGDREGGFSPRGRGGGFRGGDRGGFRGGDRGGSPWRGGDRGNFRGGDRGGSPWRGGDRGVANRGRGDFSGGSRGGNKFSPRGGGRGGFTPRGRGGNDFSPRGGRGNFQSRGGGSRVGFSDKRKQYDSDGDDDEEEEVPKKKLATGTPFAKQTKPVEDDSGEDEEDEEESDEEPQPPKKTAKSAIATAAEDSDDDEEDDDEEEEESDDDAPQVKKSVAVEEDEEDEEDEEEIEMDEEDEEEEEDEEETEPVAKTPAVKSSLKSVDSTKGKQVNLSKVATPTTVDKKAPATPHPAKTSKNAAGDVPKLNFDDDSDEEDEEDEEVEEEDEEEEEEEEDVPAKKAPVLKQSLSQIAQAIEEDSDDEDEDEEEEEDEEDEEEEEDTTNVPLIKSKADLLKQIAANRAAASAAQDSDEDEDEEDEEDVEEEDEEEEEEEDIPAVKPKVTEKQGGVKRKLDEPTVASKQVKSDGKSIISEEERRRQDRDSRSLFIKEIAKKAKDAEITGLVTGLDSFRRKKNSNFGWLVFNTVADCKKAHDVLSKSKIQGKALYVDFCLSESKAPKEHGVRPINPLQLFINALPGTCNNTDLKNIFRSSTDIKILHASGQPNSKKRAFITFGTVEDAQAAFAKSNGLKVNNHLVDVFYARHQETKVDVKPKKAATPAVQKKIVPKVAADSSGDDSEEVASSDEGIQEVEEEQPKQKKLVKKVEPKTIPRVQQKKPQFKKTGFKGKK”, the “soluble on expression in E. coli” value is recorded as “not soluble”.

Values taken from the DeepSol protein solubility set.
